Measured values: patent US20130331333A1 (HADASIT MEDICAL RESEARCH SERVICES AND DEVELOPMENT, published 2013)

Key:
[1] = biological target: T1, wild-type protease-activated receptor 2 (wt hPar2) (human, UniProt P55085 37-397); test: cell lysates applied on GST immobilized PH-domain columns (PAR2)
T1 construct: whole, on cells; Species read from the name hPar2
T1 sequence (looked up): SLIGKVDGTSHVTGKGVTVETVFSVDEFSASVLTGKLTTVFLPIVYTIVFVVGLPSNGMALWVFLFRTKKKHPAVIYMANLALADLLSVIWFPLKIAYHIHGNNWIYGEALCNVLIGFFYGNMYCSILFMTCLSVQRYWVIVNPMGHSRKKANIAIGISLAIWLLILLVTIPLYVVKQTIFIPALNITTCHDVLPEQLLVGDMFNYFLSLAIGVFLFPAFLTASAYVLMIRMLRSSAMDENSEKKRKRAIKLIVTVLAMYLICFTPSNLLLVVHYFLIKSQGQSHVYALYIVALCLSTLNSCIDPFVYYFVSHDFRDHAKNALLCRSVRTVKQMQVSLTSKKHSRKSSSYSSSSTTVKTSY

HA-tagged wt hPar1 = biological target: T2, HA-tagged wt hPar1 (human, UniProt P25116 42-425); test: lysates of cells transfected with HA-tag-hPar1 applied on GST-PH-Vav3
T2 construct: whole, on cells; Tested in lysates of transfected cells; also called HA-wt hPar1; HA-wthPar1; not shown: HA tag added downstream of the ATG start codon
T2 sequence (looked up): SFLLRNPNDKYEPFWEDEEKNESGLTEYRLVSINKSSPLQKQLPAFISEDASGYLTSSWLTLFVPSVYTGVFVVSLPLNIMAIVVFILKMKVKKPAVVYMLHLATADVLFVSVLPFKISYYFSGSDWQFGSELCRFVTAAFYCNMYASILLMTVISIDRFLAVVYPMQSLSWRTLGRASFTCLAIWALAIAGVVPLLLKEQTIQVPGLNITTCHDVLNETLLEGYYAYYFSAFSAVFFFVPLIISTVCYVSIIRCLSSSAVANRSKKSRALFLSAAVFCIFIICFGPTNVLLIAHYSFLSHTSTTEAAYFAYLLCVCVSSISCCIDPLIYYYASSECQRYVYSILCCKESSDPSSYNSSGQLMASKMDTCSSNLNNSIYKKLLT
Description: GST fusion protein columns. Fusion proteins were purified from transformed Escherichia coli bacteria that had been stimulated with isopropyl-β-D-thio-galactopyranoside (IPTG) at a concentration of […]. Bacteria were lysed according to published procedures, and then immobilized on glutathione Sepharose beads (Pharmacia). Briefly, MDA-MB-435 cell lysates were applied to GST-PAR1C-tail or GST control columns. After 2 h binding periods to the designated protein/s cell lysates to the columns, a washing step was performed. The washes (×3) were carried out using a “wash buffer” including: 100 mM NaCL, 20 mM EDTA, 10 mM Tris, pH 8.0 and 1% Triton ×100. This step was performed in order to wash out all non-specific proteins, leaving the GST-PAR₁-C-tail column firmly bound to targeted cell lysate proteins. Next, elution of bound proteins was performed via the addition of gel “sample buffer” and appropriate boiling. The samples were run electrophoretically on SDS-PAGE gels, followed by immunoblotting with the indicated antibodies and ECL detection. GST-PH-Etk/Bmx. The PH domain in Etk/Bmx was bound to GST column as previously described (Chen R, et al. (2001) Nat Cell Biol. 3: 439-444).
Next, a panel of cell-lines was transfected with HA-tag-hPar1. Cell lysates were prepared and applied onto GST-PH-Akt or GST-PH-Vav₃. […]

[2] = biological target: T3, HA-tagged mutant hPar1-7A (human, UniProt P25116 42-425); test: cell lysates applied on GST-PH-Vav3
T3 construct: whole, on cells; Tested in lysates of transfected cells; also called HA-hPar1-7A; PAR1A7; not shown: HA tag
T3 sequence (looked up): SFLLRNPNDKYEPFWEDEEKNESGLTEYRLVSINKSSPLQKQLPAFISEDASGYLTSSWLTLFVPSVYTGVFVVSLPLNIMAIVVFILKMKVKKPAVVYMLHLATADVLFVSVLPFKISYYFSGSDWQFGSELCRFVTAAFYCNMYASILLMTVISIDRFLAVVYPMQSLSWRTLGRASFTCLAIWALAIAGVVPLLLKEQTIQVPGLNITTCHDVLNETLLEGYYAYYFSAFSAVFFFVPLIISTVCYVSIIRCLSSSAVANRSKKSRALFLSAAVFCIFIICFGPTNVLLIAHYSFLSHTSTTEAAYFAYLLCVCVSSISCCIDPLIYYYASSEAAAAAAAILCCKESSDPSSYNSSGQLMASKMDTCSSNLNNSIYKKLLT
Description: GST fusion protein columns. Fusion proteins were purified from transformed Escherichia coli bacteria that had been stimulated with isopropyl-β-D-thio-galactopyranoside (IPTG) at a concentration of […]. Bacteria were lysed according to published procedures, and then immobilized on glutathione Sepharose beads (Pharmacia). Briefly, MDA-MB-435 cell lysates were applied to GST-PAR1C-tail or GST control columns. After 2 h binding periods to the designated protein/s cell lysates to the columns, a washing step was performed. The washes (×3) were carried out using a “wash buffer” including: 100 mM NaCL, 20 mM EDTA, 10 mM Tris, pH 8.0 and 1% Triton ×100. This step was performed in order to wash out all non-specific proteins, leaving the GST-PAR₁-C-tail column firmly bound to targeted cell lysate proteins. Next, elution of bound proteins was performed via the addition of gel “sample buffer” and appropriate boiling. The samples were run electrophoretically on SDS-PAGE gels, followed by immunoblotting with the indicated antibodies and ECL detection. GST-PH-Etk/Bmx. […]
Namely, without wishing to be bound by theory the PAR₁-C-tail appears to be an anchor region for association with PH-domain containing proteins. For this purpose, the association between Akt (which is ubiquitously expressed in the cells) and PAR₁ was analyzed, following activation. […]

binding result [1]: binds
binding result (HA-tagged wt hPar1): binds
binding result [2]: no binding
B1: GST-PH-Vav3 (other, UniProt Q9UKW4 400-502, looked up)
chain: RPQGDGEIRITTLDKHTKQERHIFLFDLAVIVCKRKGDNYEMKEIIDLQQYKIANNPTTDKENKKWSYGFYLIHTQGQNGLEFYCKTKDLKKKWLEQFEMALS
notes: domain: PH domain; also called PH-domain-Vav3; Vav3-PH-domain; not shown: GST tag
